Results taken from article PMC5240623, “Methylation specific targeting of a chromatin remodeling complex from sponges to humans”.

B1: mCpG 17 bp, 3'-biotin (dsDNA)
DNA 1: GAGGCGCTCGGCGGCAG
DNA 2: CTGCCGCCGAGCGCCTC
modifications: 5-methyl-C at C9 of strand 1 and C8 of strand 2 (central CpG); two other CpGs unmethylated
B2: CpG(x3) 17 bp, 3'-biotin (dsDNA)
DNA 1: GAGGCGCTCGGCGGCAG
DNA 2: CTGCCGCCGAGCGCCTC

How the values were obtained:
HsMBD2 MBD [1] = molecular target: T1, HsMBD2 MBD (Homo sapiens, UniProt Q9UBB5 150-214); test: SPR; steady state; Rmax 0.93; SPR: 10 mM HEPES pH 7.4, 50 mM NaCl, 3 mM MgCl2, 0.1 mM EDTA, 1 mM DTT, 0.05% polysorbate 20, temperature not stated; NMR conditions not in material; conditions: protein: recombinant; blunt
HsMBD2 MBD [2] = molecular target: T1, HsMBD2 MBD; test: SPR; steady state; Rmax 6.0; SPR: 10 mM HEPES pH 7.4, 50 mM NaCl, 3 mM MgCl2, 0.1 mM EDTA, 1 mM DTT, 0.05% polysorbate 20, temperature not stated; NMR conditions not in material; conditions: protein: recombinant; blunt

T1 sequence (Q9UBB5 150-214): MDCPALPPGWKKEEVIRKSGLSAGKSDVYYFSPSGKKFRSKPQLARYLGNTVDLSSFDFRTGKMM

| Binder | Kd (HsMBD2 MBD [1]) [µM] | Kd (HsMBD2 MBD [2]) [µM] |
| --- | --- | --- |
| B1 | 0.33 | – |
| B2 | – | 81.7 |
